B1: Alanine--glyoxylate aminotransferase, P21549 (parent)
chain: MASHKLLVTPPKALLKPLSIPNQLLLGPGPSNLPPRIMAAGGLQMIGSMSKDMYQIMDEIKEGIQYVFQTRNPLTLVISGSGHCALEAALVNVLEPGDSFLVGANGIWGQRAVDIGERIGARVHPMTKDPGGHYTLQEVEEGLAQHKPVLLFLTHGESSTGVLQPLDGFGELCHRYKCLLLVDSVASLGGTPLYMDRQGIDILYSGSQKALNAPPGTSLISFSDKAKKKMYSRKTKPFSFYLDIKWLANFWGCDDQPRMYHHTIPVISLYSLRESLALIAEQGLENSWRQHREAAAYLHGRLQALGLQLFVKDPALRLPTVTTVAVPAGYDWRDIVSYVIDHFDIEIMGGLGPSTGKVLRIGLLGCNATRENVDRVTEALRAALQHCPKKKL

Variants of: B1
Conditions: Homo sapiens; pH 7.4; Thermal; DSC; Hepes 20 mM; NaCl 200 mM; transition: 2; reversible: No; structure 1H0C; whole UniProt chain shown

Variant	Tm [°C]	change of melting temperature, mutant - wild type (higher = more stable) [°C]	unfolding enthalpy (calorimetric) [kcal/mol]
MASHKLLVTPPKALLKPLSIPNQLLLGPGPSNLPPRIMAAGGLQMIGSMHKDMYQIMDEIKEGIQYVFQTRNPLTLVISGSGHCALEAALVNVLEPGDSFLVGANGIWGQRAVDIGERIGARVHPMTKDPGGHYTLQEVEEGLAQHKPVLLFLTHGESSTGVLQPLDGFGELCHRYKCLLLVDSVASLGGTPLYMDRQGIDILYSGSQKALNAPPGTSLISFSDKAKKKMYSRKTKPFSFYLDIKWLANFWGCDDQPRMYHHTIPVISLYSLRESLALIAEQGLENSWRQHREAAAYLHGRLQALGLQLFVKDPALRLPTVTTVAVPAGYDWRDIVSYVIDHFDIEIMGGLGPSTGKVLRIGLLGCNATRENVDRVTEALRAALQHCPKKKL [S50H]	67.1	-2.9	357
MASHKLLVTPLKALLKPLSIPNQLLLGPGPSNLPPRIMAAGGLQMIGSMSKDMYQIMDEIKEGIQYVFQTRNPLTLVISGSGHCALEAALVNVLEPGDSFLVGANGIWGQRAVDIGERIGARVHPMTKDPGGHYTLQEVEEGLAQHKPVLLFLTHGESSTGVLQPLDGFGELCHRYKCLLLVDSVASLGGTPLYMDRQGIDILYSGSQKALNAPPGTSLISFSDKAKKKMYSRKTKPFSFYLDTKWLANFWGCDDQPRMYHHTIPVISLYSLRESLALIAEQGLENSWRQHREAAAYLHGRLQALGLQLFVKDPALRLPTVTTVAVPAGYDWRDIVSYVMDHFDIEIMGGLGPSTGKVLRIGLLGCNATRENVDRVTEALRAALQHCPKKKL [P11L I340M I244T]	75.8	5.8	402
MASHKLLVTPPKALLKPLSIPNQLLLGPGPSNLPPRIMAAGGLQMIGHMSKDMYQIMDEIKEGIQYVFQTRNPLTLVISGSGHCALEAALVNVLEPGDSFLVGANGIWGQRAVDIGERIGARVHPMTKDPGGHYTLQEVEEGLAQHKPVLLFLTHGESSTGVLQPLDGFGELCHRYKCLLLVDSVASLGGTPLYMDRQGIDILYSGSQKALNAPPGTSLISFSDKAKKKMYSRKTKPFSFYLDIKWLANFWGCDDQPRMYHHTIPVISLYSLRESLALIAEQGLENSWRQHREAAAYLHGRLQALGLQLFVKDPALRLPTVTTVAVPAGYDWRDIVSYVMDHFDIEIMGGLGPSTGKVLRIGLLGCNATRENVDRVTEALRAALQHCPKKKL [S48H I340M]	88	18	599
MASHKLLVTPLKALLKPLSIPNQLLLGPGPSNLPPRIMAAGGLQMIGSMSKDMYQIMDEIKEGIQYVFQTRNPLTLVISGSGHCALEAALVNVLEPGDSFLVGANGIWGQRAVDIGERIGARVHPMTKDPGGHYTLQEVEEGLAQHKPVLLFLTHGESSTGVLQPLDGFGELCHRYKCLLLVDSVASLGGTPLYMDRQGIDILYSGSQKALNAPPGTSLISFSDKAKKKMYSRKTKPFSFYLDIKWLANFWGCDDQPRMYHHTIPVISLYSLRESLALIAEQGLENSWRQHREATAYLHGRLQALGLQLFVKDPALRLPTVTTVAVPAGYDWRDIVSYVMDHFDIEIMGGLGPSTGKVLRIGLLGCNATRENVDRVTEALRAALQHCPKKKL [P11L I340M A295T]	77.5	7.5	500
MASHKLLVTPPKALLKPLSIPNRLLLGPGPSNLPPRIMAAGGLQMIGHMSKEMYQIMDEIKEGIQYVFQTRNPLTLVISGSGHCALEAALVNVLEPGDSFLVGANGIWGQRAADIGERIGARVHPMTKDPGGHYTLQEVEEGLAQHKPVLLFLTHGESSTGVLQPLDGFGELCHRYKCLLLVDSVASLGGTPLYMDRQGIDILYSGSQKALNAPPGTSLISFSDKAKKKMYSRKTKPFSFYLDIKWLANFWGCDDQPRMYHHTIPVISLYSLRESLALIAEQGLENSWRQHREAAAYLHGRLQALGLQLFVKDPALRLPTVTTVAVPAGYDWRDIVSYVMDHFDIEIMGGLGPSTGKVLRIGLLGCNATRENVDRVTEALRAALQHCPKKKL [Q23R S48H D52E V113A I340M]	93.7	23.7	638
MASHKLLVTPPKALLKPLSIPNRLLLGPGPSNLPPRIMAAGGLQMIGHMSKEMYQIMDEIKEGIQYVFQTRNPLTLVISGSGHCALEAALVNVLEPGDSFLVGANGIWGQRAVDIGERIGARVHPMTKDPGGHYTLQEVEEGLAQHKPVLLFLTHGESSTGVLQPLDGFGELCHRYKCLLLVDSVASLGGTPLYMDRQGIDILYSGSQKALNAPPGTSLISFSDKAKKKMYSRKTKPFSFYLDIKWLANFWGCDDQPRMYHHTIPVISLYSLRESLALIAEQGLENSWRQHREAAAYLHGRLQALGLQLFVKDPALRLPTVTTVAVPAGYDWRDIVSYVMDHFDIEIMGGLGPSTGKVLRIGLLGCNATRENVDRVTEALRAALQHCPKKKL [Q23R S48H D52E I340M]	92	22	609
MASHKLLVTPPKALLKPLSIPNQLLLGPGPSNLPPRIMAAGGLQMIGSMSKEMYQIMDEIKEGIQYVFQTRNPLTLVISGSGHCALEAALVNVLEPGDSFLVGANGIWGQRAVDIGERIGARVHPMTKDPGGHYTLQEVEEGLAQHKPVLLFLTHGESSTGVLQPLDGFGELCHRYKCLLLVDSVASLGGTPLYMDRQGIDILYSGSQKALNAPPGTSLISFSDKAKKKMYSRKTKPFSFYLDIKWLANFWGCDDQPRMYHHTIPVISLYSLRESLALIAEQGLENSWRQHREAAAYLHGRLQALGLQLFVKDPALRLPTVTTVAVPAGYDWRDIVSYVIDHFDIEIMGGLGPSTGKVLRIGLLGCNATRENVDRVTEALRAALQHCPKKKL [D52E]	84.4	14.4	544
MASHKLLVTPLKALLKPLSIPNQLLLGPGPSNLPPRIMAAGGLQMIGSMSKDMYQIMDEIKEGIQYVFQTRNPLTLVISGSGHCALEAALVNVLEPGDSFLVGANGIWGQRAVDIGERIGARVHPMTKDPGGHYTLQEVEEGLAQHKPVLLFLTHGESSTGVLQPLDGFRELCHRYKCLLLVDSVASLGGTPLYMDRQGIDILYSGSQKALNAPPGTSLISFSDKAKKKMYSRKTKPFSFYLDIKWLANFWGCDDQPRMYHHTIPVISLYSLRESLALIAEQGLENSWRQHREAAAYLHGRLQALGLQLFVKDPALRLPTVTTVAVPAGYDWRDIVSYVMDHFDIEIMGGLGPSTGKVLRIGLLGCNATRENVDRVTEALRAALQHCPKKKL [P11L I340M G170R]	75.5	5.5	459

Source: FireProtDB (doi:10.1016/j.bbapap.2014.10.010)
